The source of these data is paper PMC12391199.

Assay [1] has as its target portal protein gp4 of bacteriophage Epsilon15 (portal complex) (bacteriophage Epsilon15). Kind of assay: cryo-EM structure; asymmetric single-particle reconstruction of whole ϵ15 virions (iodixanol-purified, in PBS, graphene oxide-coated grids, Titan Krios 300 kV, RELION 2.0), with focused refinement of the portal at ~7 Å.
In assay [2] the target is tail hub of bacteriophage Epsilon15 (bacteriophage Epsilon15). Described as above.

As to “portal protein gp4 of bacteriophage Epsilon15 (portal complex) (natural protein)”, the stoichiometry N in assay [1] was 12.

In the case of “tail hub of bacteriophage Epsilon15 (complex)”, the stoichiometry N in assay [2] was determined as 6.
